Measured values as given in US20240016892A1 (SHATTUCK LABS, published 2024).

How the values were obtained:
[1] = biological target: T1, anti-human LIGHT-biotin antibody (MSD detection); assay: MSD sandwich 'Dual - Antibody': capture anti-TIGIT, TIGIT-Fc-LIGHT titrated, detection anti-LIGHT (same curve as the capture row)
T1 construct: also called anti-LIGHT antibody

[2] = biological target: T2, recombinant human CD113 (PVRL3) (human, UniProt Q9NQS3 58-404); assay: BLI (Octet-Red96), tagged rhCD113 (PVRL3) immobilised on biosensor
T2 construct: also called rhCD113 (PVRL3); Nectin-3
Procedure: (§1) Bio-Layer interferometry-based affinity testing was used to determine the on-rates (Ka), off-rates (Kd) and binding affinities (KD) of the TIGIT-Fc-LIGHT chimeric protein to intended binding targets, using histidine- or biotin-tagged versions of the human recombinant proteins (PVR, HVEM, LTβR, PVRL2, PVRL3, and Nectin-4; purchased from Acro Biosystems or Sino Biological). Commercially available or internally produced single-sided fusion protein controls (TIGIT-Fc and Fc-LIGHT) were also tested in parallel. Targets were immobilized at a concentration of 3 μg/mL in Kinetics buffer (PBS/0.1% Tween-20/1% BSA; pH7.0) to anti-pentaHis or streptavidin coated biosensors. Direct binding of fusion proteins to recombinant target proteins was performed on an Octet-Red96 BLI instrument, using association and dissociation times of 90 and 120 seconds, respectively.

[3] = biological target: T3, cell surface human HVEM (CHO-K1/hHVEM cells; Jurkat effector cells; human PBMC) (human, UniProt Q92956 39-283); assay: flow cytometry, CHO-K1 cells stably expressing human HVEM; cell surface HVEM
T3 construct: whole, on cells; also called cell surface HVEM
T3 sequence (looked up): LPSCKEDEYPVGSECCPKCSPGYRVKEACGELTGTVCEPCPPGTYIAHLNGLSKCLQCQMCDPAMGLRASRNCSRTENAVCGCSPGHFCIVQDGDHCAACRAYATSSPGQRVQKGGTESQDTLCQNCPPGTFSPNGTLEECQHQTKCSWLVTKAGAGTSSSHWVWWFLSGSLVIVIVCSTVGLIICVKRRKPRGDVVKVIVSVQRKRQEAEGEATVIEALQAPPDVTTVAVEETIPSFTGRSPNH

recombinant human HVEM = biological target: T4, recombinant human HVEM (human, UniProt Q92956 39-202); assay: BLI (Octet-Red96), tagged rhHVEM immobilised on biosensor
T4 construct: Construct limits and tag not specified; also called rhHVEM; TNFRSF14
T4 sequence (looked up): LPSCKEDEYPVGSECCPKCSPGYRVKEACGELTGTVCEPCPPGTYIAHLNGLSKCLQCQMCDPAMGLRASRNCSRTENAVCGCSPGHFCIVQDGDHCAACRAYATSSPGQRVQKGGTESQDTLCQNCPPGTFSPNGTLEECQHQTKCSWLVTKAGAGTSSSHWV
Procedure: as §1
(§2) Protein-protein interactions (PPI) between the fusion proteins and their cognate binding partners were characterized using both recombinant protein and cell-based methods. First, bio-layer interferometry-based affinity testing was used to assess the kinetics of receptor/ligand binding.

recombinant human PVR = biological target: T5, recombinant human PVR (human, UniProt P15151 21-343); assay: MSD sandwich 'Dual - Potency #2': capture HVEM-Fc, TIGIT-Fc-LIGHT titrated, detection PVR-Biotin (same curve as the capture row)
T5 construct: The tagged PVR of the BLI assay and the biotinylated PVR used as detector in MSD are treated as one molecule; also called rhPVR; CD155
T5 sequence (looked up): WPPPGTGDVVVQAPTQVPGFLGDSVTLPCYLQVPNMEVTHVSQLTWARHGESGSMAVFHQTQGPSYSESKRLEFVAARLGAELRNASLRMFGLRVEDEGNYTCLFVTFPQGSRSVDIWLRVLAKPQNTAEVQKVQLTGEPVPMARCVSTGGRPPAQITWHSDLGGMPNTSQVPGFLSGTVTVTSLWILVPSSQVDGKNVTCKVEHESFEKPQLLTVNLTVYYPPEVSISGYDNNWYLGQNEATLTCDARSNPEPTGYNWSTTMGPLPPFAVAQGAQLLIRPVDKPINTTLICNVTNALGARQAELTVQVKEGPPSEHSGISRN
Procedure: For the TIGIT-Fc-LIGHT chimeric protein; MSD Multi-Array plates (MSD) were pre-coated overnight with recombinant human LTβR-Fc or HVEM-Fc (Acro Biosystems) at 4° C. The plates were blocked with Diluent 100 (MSD) for at least one hour at room temperature on a shaker. After washing, analysis samples were added and then serially diluted 3-fold and loaded in duplicate wells to generate 8-10 test concentrations. The bound the TIGIT-Fc-LIGHT chimeric protein was detected with recombinant biotinylated human PVR (Acro Biosystems). Streptavidin conjugated to ruthenium (MSD), was added to bind the biotin labeled detector. MSD Gold Reading buffer (MSD) was added to the plate, and upon application of an electrical charge, an electrochemiluminescent signal was produced and detected with the MSD MESO QuickPlex SQ 120MM, Model 1300, to generate relative light units (RLU). Analogous assays were performed using mTIGIT-Fc-LIGHT and murine recombinant PVR, HVEM, and […] (Acro Biosystems).
The binding of the TIGIT-Fc-LIGHT chimeric protein to its receptors was characterized by Meso Scale Discovery (MSD) ELISA assays. […] Binding of the chimeric protein to LTβR-Fc was detected using an PVR-Biotin and using an electrochemiluminescence (ECL) readout. […] Binding of the chimeric protein to HVEM-Fc was detected using an PVR-Biotin and using an electrochemiluminescence (ECL) readout. […]

[4] = biological target: T6, cell surface human LTβR (A375 cells; U2OS/NIK/NFκB reporter cells) (human, UniProt P36941 31-435); assay: flow cytometry, A375 cells that express human LTβR; cell surface LTβR
T6 construct: whole, on cells; also called cell surface LTβR

recombinant human LTβR = biological target: T7, recombinant human LTβR (human, UniProt P36941 31-227, limits assumed); assay: BLI (Octet), affinity for recombinant human LTβR compared with Fc-LIGHT
T7 construct: Bought from Acro Biosystems or Sino Biological; construct limits and tag not specified; also called rhLTβR; TNFRSF3
Procedure: as §1, §2

T2 sequence (Q9NQS3 58-404 limits assumed): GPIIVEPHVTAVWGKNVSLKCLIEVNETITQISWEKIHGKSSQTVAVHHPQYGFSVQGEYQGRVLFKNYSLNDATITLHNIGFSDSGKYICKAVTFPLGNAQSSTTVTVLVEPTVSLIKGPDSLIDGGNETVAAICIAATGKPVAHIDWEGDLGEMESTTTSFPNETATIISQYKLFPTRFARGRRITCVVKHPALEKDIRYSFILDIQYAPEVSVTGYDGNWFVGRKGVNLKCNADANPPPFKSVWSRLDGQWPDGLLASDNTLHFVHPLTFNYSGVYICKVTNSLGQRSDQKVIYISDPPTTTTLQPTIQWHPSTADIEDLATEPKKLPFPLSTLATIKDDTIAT
T7 sequence (P36941 31-227 limits assumed): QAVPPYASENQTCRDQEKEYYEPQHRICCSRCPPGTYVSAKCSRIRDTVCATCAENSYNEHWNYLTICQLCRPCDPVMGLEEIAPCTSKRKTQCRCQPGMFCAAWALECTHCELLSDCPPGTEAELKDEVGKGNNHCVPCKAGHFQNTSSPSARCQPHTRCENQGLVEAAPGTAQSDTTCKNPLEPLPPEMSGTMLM
T6 sequence (P36941 31-435): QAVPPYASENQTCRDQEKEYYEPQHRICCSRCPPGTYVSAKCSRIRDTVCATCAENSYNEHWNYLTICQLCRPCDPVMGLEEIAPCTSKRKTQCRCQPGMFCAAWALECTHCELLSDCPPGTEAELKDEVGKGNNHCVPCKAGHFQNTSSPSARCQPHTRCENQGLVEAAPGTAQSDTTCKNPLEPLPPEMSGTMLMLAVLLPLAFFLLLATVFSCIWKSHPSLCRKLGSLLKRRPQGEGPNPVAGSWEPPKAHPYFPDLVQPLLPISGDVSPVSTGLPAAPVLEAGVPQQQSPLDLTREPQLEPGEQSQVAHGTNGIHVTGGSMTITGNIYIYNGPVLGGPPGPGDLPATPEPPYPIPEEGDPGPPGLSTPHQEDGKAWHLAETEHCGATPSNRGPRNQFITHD

B1: human TIGIT-Fc-LIGHT chimeric protein (Fc fusion)
chain: MMTGTIETTGNISAEKGGSIILQCHLSSTTAQVTQVNWEQQDQLLAICNADLGWHISPSFKDRVAPGPGLGLTLQSLTVNDTGEYFCIYHTYPDGTYTGRIFLEVLESSVAEHGARFQIPSKYGPPCPPCPAPEFLGGPSVFLFPPKPKDQLMISRTPEVTCVVVDVSQEDPEVQFNWYVDGVEVHNAKTKPREEQFNSTYRVVSVLTVLHQDWLSGKEYKCKVSSKGLPSSIEKTISNATGQPREPQVYTLPPSQEEMTKNQVSLTCLVKGFYPSDIAVEWESNGQPENNYKTTPPVLDSDGSFFLYSRLTVDKSRWQEGNVFSCSVLHEALHNHYTQKSLSLSLGKIEGRMDLQLHWRLGEMVTRLPDGPAGSWEQLIQERRSHEVNPAAHLTGANSSLTGSGGPLLWETQLGLAFLRGLSYHDGALVVTKAGYYYIYSKVQLGGVGCPLGLASTITHGLYKRTPRYPEELELLVSQQSPCGRATSSSRVWWDSSFLGGVVHLEAGEKVVVRVLDERLVRLRDGTRSYFGAFMV
notes: Said to exist as a hexamer (dimer of trimers); Glycosylated; also called hTIGIT-Fc-LIGHT; TIGIT-Fc(IgG4)-LIGHT
- EC50 [1]: 1.15 nM
- koff [2]: 0.00126 s⁻¹
- kon [2]: 130000 M⁻¹ s⁻¹
- EC50 [3]: 65.8 nM
- Kd (recombinant human HVEM): 6.49 nM
- koff (recombinant human HVEM): 0.000173 s⁻¹
- kon (recombinant human HVEM): 26100 M⁻¹ s⁻¹
- EC50 (recombinant human PVR): 86 nM
- EC50 [4]: 87.1 nM
- fold affinity relative to Fc-LIGHT control (recombinant human LTβR): ~8 fold
